{
  "source": "paper PMC9142731",
  "about": "(Virology Journal, 2022)",
  "settings_in_all_cases": "both partners purified",
  "key": {"[1]": {"molecular_target": "T1, OC43 nucleocapsid protein, recombinant (Human coronavirus OC43 (HCoV-OC43)., UniProt P33469)", "T1 construct": "also called OC43 NP; source: bought: Sino Biological", "assay": "ELISA"}, "[2]": {"molecular_target": "T2, MERS-CoV nucleocapsid protein, recombinant (MERS-CoV, strain , UniProt K9N4V7)", "T2 construct": "also called MERS-CoV NP; source: bought: Sino Biological", "assay": "ELISA"}, "[3]": {"molecular_target": "T3, HKU1 nucleocapsid protein, recombinant (Human coronavirus HKU1 (isolate N1) …, UniProt Q5MQC6)", "T3 construct": "also called HKU1 NP; source: bought: Sino Biological", "assay": "ELISA"}, "[4]": {"molecular_target": "T4, NL63 nucleocapsid protein, recombinant (Human coronavirus NL63 (HCoV-NL63)., UniProt Q6Q1R8)", "T4 construct": "also called NL63 NP; source: bought: Sino Biological", "assay": "ELISA"}, "[5]": {"molecular_target": "T5, 229E nucleocapsid protein, recombinant (Human coronavirus 229E (HCoV-229E)., UniProt P15130)", "T5 construct": "also called 229E NP; source: bought: Sino Biological"}, "[6]": {"molecular_target": "T6, SARS-CoV nucleocapsid protein, recombinant (Severe acute respiratory syndrome …, UniProt P59595)", "T6 construct": "also called SARS-CoV NP; source: bought: Sino Biological"}, "[7]": {"molecular_target": "T7, SARS-CoV-2 nucleocapsid protein (WT), recombinant (Severe acute respiratory syndrome …, UniProt P0DTC9)", "T7 construct": "also called SARS-CoV-2 NP; WT NP; source: bought: Sino Biological; not shown: His tag, C-terminal, kept", "assay": "SPR"}},
  "data": [
    {"binder": "P301-F7 (antibody, V domains shown, source: 293 F cells, transient transfection, purified (Protein A beads)) VH: QLQLQESGPGLVKPSETLSLTCTVSGGSISSTSYYWGWIRQPPGKGLEWIGSIYYSGSTYYNPSLKSRVTISVDTSKNQFSLKLSSVTAADTAVYYCARFSLYCSSTSCYENWFDPWGQGTLVTVSS VL: QSVLTQPPSVSAAPGQKVTISCSGSSSNIGNNYVSWYQQLPGTAPKLLIYDNNKRPSGIPDRFSGSKSGTSATLGITGLQTGDEADYYCGTWDSSLSAGQVVFGGGTKLTVL", "values": [
      {"measurement": "binding result", "setting": "[1]", "result": "no binding"},
      {"measurement": "binding result", "setting": "[2]", "result": "no binding"},
      {"measurement": "binding result", "setting": "[3]", "result": "no binding"},
      {"measurement": "binding result", "setting": "[4]", "result": "no binding"},
      {"measurement": "binding result", "setting": "[5]", "result": "no binding"},
      {"measurement": "Kd", "setting": "[6]", "result": 14.9, "unit": "nM"},
      {"measurement": "Kd", "setting": "[7]", "result": 13.3, "unit": "nM"}
    ]}
  ]
}
